These results are taken from patent US20130336988A1, “METHODS FOR TREATING EARLY STAGE OR MILD NEUROLOGICAL DISORDERS” (NEW YORK UNIVERSITY, priority 2010, published 2013).

The target in experiment [1] is T1, p75^NTR/SorCS2 and Trio (Homo sapiens, UniProt P08138+Q96PQ0).
T1 construct: HA; expressed in transfected cells; host or cells: HT-1080 cells
Description: Co-immunoprecipitation of Trio with p75NTR/SorCS2 after proNT treatment of HT1080 cells. The format is cell-based. As to conditions: HT1080 cells expressing p75NTR and SorCS2; 20 min incubation; IP anti-p75NTR, Western blot. As for the experimental part: HT-1080 cells were transfected with HA-p75^NTR and myc-SorCS2. 24-48 hours later, cells were treated with 25 ng/ml proNGF for 20 min where indicated. Cells were lysed with lysis buffer (50 mM Tris-HCl pH 8.0, 140 mM NaCl, 2 mM EDTA, 1% NP40, 10% glycerol) supplemented with protease inhibitors and complexes were immunoprecipitated using anti-HA agarose. To map the Trio domain required for the interaction with p75^NTR, 293T cells were transfected with HA-p75^NTR and constructs of the individual Trio domains. After 24 hours, cells were lysed as described above, and complexes were immunoprecipitated using anti-HA agarose or anti-Myc agarose as indicated.
A general note: A western blot detects proteins with antibodies after separation by electrophoresis.

Experiment [2] concerns the target T2, SorCS2 (Homo sapiens, UniProt Q96PQ0).
T2 construct: expressed in transfected cells; host or cells: HEK 293 cells (proBDNF) / 293T cells (proNGF)
Briefly: Co-immunoprecipitation of proNT with SorCS2 in transfected 293 cells. As to conditions: 293 cells co-transfected with proNT and myc-SorCS2; IP-Western blot. The format is binding. The method, then: (§1) FIG. 2A-G. ProNTs induce growth cone collapse. (A, B) DIV3 hippocampal neurons transfected with LifeAct-RFP were imaged by time-lapse microscopy before (top panel) and starting approximately 2 min after (bottom panel) treatment with proBDNF (A) or proNGF (B). Actin dynamics stalled upon proNT treatment and subsequently the growth cone collapsed. Time is indicated in (min:sec). Scale bars, 10 μm. (C, D) DIV3 hippocampal cultures were fixed and stained for p75^NTR (C) and SorCS2 (D). Arrows highlight growth cones. Scale bars, 20 μm. (E) Brain sections from 6-week old C57/BL6 mice were stained for SorCS2. DG, dentate gyrus. Arrows highlight expression in dentate granule dendrites. Scale bar, 200 μm. (F) Both sortilin and SorCS2 interact with proBDNF. HEK 293 cells were transfected with proBDNF-HA and myc-sortilin or mycSorCS2, lysates were immunoprecipitated with anti-HA agarose and analyzed by Western blot with indicated antibodies. (G) IP-WB from 293T cells showing interactions between proNGF and sortilin and SorCS2.
(§2) The LifeAct sequence (RIEDL, J. et al., Nat Methods 5:605-607 (2008)) was cloned into the pEGFP-N1 backbone (Clontech) using the BglII and BamHI restriction sites. Trio constructs were described previously (FERRARO, F. et al., Mol Biol Cell 18:4813-4825 (2007)), human sortilin cDNA or human SorCS2 cDNA was subcloned into the pcDNA3.1 hygro expression vector (Invitrogen). […]

Experiment [3] concerns the target T3, sortilin (Homo sapiens, UniProt Q99523).
T3 construct: expressed in transfected cells; host or cells: HEK 293 cells (proBDNF) / 293T cells (proNGF)
T3 sequence (Q99523 78-831): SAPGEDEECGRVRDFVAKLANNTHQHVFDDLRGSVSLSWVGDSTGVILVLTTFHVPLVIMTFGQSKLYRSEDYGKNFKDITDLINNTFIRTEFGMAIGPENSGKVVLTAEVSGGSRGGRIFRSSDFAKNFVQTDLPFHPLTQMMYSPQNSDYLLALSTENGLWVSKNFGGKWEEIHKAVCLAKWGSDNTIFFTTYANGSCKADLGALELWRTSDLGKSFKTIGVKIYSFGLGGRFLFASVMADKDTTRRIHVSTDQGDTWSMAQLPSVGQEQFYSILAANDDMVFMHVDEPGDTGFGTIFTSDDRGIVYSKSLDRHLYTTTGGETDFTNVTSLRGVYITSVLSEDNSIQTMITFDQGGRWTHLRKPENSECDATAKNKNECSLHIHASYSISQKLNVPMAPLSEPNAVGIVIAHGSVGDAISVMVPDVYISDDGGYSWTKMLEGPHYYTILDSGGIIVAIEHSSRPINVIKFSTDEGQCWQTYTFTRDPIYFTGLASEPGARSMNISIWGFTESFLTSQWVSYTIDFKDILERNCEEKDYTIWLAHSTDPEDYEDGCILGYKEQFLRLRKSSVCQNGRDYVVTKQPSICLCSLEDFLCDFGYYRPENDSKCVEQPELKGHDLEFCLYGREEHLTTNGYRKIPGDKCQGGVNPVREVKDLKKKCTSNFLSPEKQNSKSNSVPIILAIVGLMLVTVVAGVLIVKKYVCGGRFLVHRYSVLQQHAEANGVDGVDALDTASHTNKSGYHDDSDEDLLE
Description: Co-immunoprecipitation of proNT with sortilin in transfected 293 cells. The format is binding. As to conditions: 293 cells co-transfected with proNT and myc-sortilin; IP-Western blot. The method, then: as §1, §2

T2 sequence (Q96PQ0 51-1159): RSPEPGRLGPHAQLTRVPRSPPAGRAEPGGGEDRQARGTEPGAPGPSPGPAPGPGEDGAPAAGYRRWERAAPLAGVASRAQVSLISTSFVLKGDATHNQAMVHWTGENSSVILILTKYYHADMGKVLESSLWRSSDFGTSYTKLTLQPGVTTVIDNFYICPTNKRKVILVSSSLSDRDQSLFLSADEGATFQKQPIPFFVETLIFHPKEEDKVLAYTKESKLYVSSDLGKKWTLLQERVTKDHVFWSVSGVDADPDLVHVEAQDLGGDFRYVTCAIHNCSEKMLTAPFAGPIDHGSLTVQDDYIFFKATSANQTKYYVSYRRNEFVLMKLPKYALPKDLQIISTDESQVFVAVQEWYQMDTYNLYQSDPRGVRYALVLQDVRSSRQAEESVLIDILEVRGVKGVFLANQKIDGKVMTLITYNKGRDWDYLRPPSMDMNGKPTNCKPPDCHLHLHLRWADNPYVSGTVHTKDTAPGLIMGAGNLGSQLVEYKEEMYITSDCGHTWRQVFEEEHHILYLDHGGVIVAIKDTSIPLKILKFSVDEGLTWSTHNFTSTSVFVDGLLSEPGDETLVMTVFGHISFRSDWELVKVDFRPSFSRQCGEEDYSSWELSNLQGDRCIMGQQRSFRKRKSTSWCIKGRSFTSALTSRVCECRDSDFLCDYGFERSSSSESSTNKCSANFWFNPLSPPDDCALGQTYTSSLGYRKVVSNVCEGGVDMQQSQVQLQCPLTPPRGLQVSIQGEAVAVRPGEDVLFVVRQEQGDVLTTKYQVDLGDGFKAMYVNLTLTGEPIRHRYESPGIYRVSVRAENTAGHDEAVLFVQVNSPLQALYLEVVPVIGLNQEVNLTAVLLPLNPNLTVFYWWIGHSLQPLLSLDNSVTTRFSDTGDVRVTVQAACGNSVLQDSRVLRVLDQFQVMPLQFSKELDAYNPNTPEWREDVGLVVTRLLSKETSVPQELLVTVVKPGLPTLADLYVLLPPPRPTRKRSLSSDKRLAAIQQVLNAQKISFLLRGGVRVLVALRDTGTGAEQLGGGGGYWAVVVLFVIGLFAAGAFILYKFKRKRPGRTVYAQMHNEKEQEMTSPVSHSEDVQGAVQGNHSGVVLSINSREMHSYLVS
T1 sequence (P08138 29-427): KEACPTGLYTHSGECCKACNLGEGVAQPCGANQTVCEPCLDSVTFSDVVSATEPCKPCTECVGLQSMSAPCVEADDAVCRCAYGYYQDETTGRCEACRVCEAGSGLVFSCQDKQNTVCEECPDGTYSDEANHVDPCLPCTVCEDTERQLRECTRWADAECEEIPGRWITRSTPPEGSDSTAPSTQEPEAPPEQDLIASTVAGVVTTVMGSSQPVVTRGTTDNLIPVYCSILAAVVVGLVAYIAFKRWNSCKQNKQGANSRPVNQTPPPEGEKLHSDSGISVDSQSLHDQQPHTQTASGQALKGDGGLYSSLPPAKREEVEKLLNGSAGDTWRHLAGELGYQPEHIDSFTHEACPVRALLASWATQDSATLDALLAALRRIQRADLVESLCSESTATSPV
T1 sequence (Q96PQ0 70-1159 limits assumed): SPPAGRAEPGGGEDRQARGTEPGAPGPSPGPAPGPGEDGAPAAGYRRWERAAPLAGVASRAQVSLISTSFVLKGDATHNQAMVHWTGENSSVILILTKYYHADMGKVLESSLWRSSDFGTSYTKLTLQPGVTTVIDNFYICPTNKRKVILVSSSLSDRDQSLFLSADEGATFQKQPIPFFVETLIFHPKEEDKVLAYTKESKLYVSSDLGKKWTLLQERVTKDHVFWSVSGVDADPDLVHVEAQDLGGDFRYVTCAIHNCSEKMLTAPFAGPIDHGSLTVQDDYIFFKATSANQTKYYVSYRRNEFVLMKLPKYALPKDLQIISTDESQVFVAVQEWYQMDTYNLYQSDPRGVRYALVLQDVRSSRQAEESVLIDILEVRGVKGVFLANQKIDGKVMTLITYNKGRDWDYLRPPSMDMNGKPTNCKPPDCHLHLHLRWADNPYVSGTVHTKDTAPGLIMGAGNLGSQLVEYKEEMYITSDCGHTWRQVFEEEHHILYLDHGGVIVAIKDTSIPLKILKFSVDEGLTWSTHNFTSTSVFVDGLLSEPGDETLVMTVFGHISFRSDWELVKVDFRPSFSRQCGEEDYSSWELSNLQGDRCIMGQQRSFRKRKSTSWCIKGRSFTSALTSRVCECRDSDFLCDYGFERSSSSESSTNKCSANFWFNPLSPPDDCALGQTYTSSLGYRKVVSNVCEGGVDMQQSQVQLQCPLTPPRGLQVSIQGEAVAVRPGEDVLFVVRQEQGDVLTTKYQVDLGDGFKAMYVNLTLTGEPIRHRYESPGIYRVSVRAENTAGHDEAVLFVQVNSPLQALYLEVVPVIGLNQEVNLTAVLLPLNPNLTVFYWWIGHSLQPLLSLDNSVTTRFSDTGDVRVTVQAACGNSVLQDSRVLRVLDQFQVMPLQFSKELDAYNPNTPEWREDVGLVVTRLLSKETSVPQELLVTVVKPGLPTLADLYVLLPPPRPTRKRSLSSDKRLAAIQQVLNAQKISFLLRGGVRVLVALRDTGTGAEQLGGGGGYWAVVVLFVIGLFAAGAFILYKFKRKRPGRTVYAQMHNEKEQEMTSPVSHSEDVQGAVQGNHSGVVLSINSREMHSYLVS

On to “proNGF: proneurotrophin precursor of nerve growth factor, produced in Sf9 cells and purified”, for which the “interaction between p75NTR/SorCS2 and Trio” value in experiment [1] is “markedly reduced the interaction”. For the same molecule, the “interaction with SorCS2 (co-immunoprecipitation)” value in experiment [2] is “co-immunoprecipitated with both sortilin and SorCS2”. Moreover, the “interaction with sortilin (co-immunoprecipitation)” value in experiment [3] was “co-immunoprecipitated with both sortilin and SorCS2”.

B1: proBDNF: murine proBDNF collected from supernatants of transfected 293 cells (protein)
chain: APMKEVNVHGQGNLAYPGVRTHGTLESVNGPRAGSRGLTTTSLADTFEHVIEELLDEDQKVRPNEENHKDADLYTSRVMLSSQVPLEPPLLFLLEEYKNYLDAANMSMRVRRHSDPARRGELSVCDSISEWVTAADKKTAVDMSGGTVTVLEKVPVSKGQLKQYFYETKCNPMGYTKEGCRGIDKRHWNSQCRTTQSYVRALTMDSKKRIGWRFIRIDTSCVCTLTIKRGR
With B1, the “interaction between p75NTR/SorCS2 and Trio” value in experiment [1] was “markedly reduced the interaction”. The “interaction with SorCS2 (co-immunoprecipitation)” value in experiment [2] is “interact”. Moreover, the “interaction with sortilin (co-immunoprecipitation)” value in experiment [3] is on record as “interact”.
